Blank lines part the entries; values can stand above or below the binder they belong to.
B3: Ssl2 (natural protein, Saccharomyces cerevisiae, UniProt Q00578 1-843, looked up)
chain: MTDVEGYQPKSKGKIFPDMGESFFSSDEDSPATDAEIDENYDDNRETSEGRGERDTGAMVTGLKKPRKKTKSSRHTAADSSMNQMDAKDKALLQDTNSDIPADFVPDSVSGMFRSHDFSYLRLRPDHASRPLWISPSDGRIILESFSPLAEQAQDFLVTIAEPISRPSHIHEYKITAYSLYAAVSVGLETDDIISVLDRLSKVPVAESIINFIKGATISYGKVKLVIKHNRYFVETTQADILQMLLNDSVIGPLRIDSDHQVQPPEDVLQQQLQQTAGKPATNVNPNDVEAVFSAVIGGDNEREEEDDDIDAVHSFEIANESVEVVKKRCQEIDYPVLEEYDFRNDHRNPDLDIDLKPSTQIRPYQEKSLSKMFGNGRARSGIIVLPCGAGKTLVGITAACTIKKSVIVLCTSSVSVMQWRQQFLQWCTLQPENCAVFTSDNKEMFQTESGLVVSTYSMVANTRNRSHDSQKVMDFLTGREWGFIILDEVHVVPAAMFRRVVSTIAAHAKLGLTATLVREDDKIGDLNFLIGPKLYEANWMELSQKGHIANVQCAEVWCPMTAEFYQEYLRETARKRMLLYIMNPTKFQACQFLIQYHERRGDKIIVFSDNVYALQEYALKMGKPFIYGSTPQQERMNILQNFQYNDQINTIFLSKVGDTSIDLPEATCLIQISSHYGSRRQEAQRLGRILRAKRRNDEGFNAFFYSLVSKDTQEMYYSTKRQAFLVDQGYAFKVITHLHGMENIPNLAYASPRERRELLQEVLLKNEEAAGIEVGDDADNSVGRGSNGHKRFKSKAVRGEGSLSGLAGGEDMAYMEYSTNKNKELKEHHPLIRKMYYKNLKK
notes: Ssl2 (XPB homologue), subunit of yeast coreTFIIH; C-Ssl2 549–776, C-terminal region 771–843 as printed; Stood in the assays as part of coreTFIIH; also called yeast homologue of XPB; source: purified from yeast as a subunit of coreTFIIH

Key:
Conditions in all cases: both partners purified
Ssl2 = biological target: B3; experiment: cryo-EM structure; coreTFIIH and Rad4–Rad23–Rad33 on −24*/+24 AAF-DNA with ATP, glycerol gradient with glutaraldehyde; Map 1 3.86 Å (TFIIH), Map 2 9.2 Å, Map 3 7.9 Å; Rad4, Rad33 and the Tfb1 PH domain placed by rigid-body docking of known structures or homology models
Rad3 = biological target: T1, Rad3 (yeast, UniProt P06839 1-778); experiment: as above
T1 construct: Rad3 (XPD homologue), subunit of yeast coreTFIIH; Stood in the assays as part of coreTFIIH; also called yeast homologue of XPD; source: purified from yeast as a subunit of coreTFIIH
T1 sequence (looked up): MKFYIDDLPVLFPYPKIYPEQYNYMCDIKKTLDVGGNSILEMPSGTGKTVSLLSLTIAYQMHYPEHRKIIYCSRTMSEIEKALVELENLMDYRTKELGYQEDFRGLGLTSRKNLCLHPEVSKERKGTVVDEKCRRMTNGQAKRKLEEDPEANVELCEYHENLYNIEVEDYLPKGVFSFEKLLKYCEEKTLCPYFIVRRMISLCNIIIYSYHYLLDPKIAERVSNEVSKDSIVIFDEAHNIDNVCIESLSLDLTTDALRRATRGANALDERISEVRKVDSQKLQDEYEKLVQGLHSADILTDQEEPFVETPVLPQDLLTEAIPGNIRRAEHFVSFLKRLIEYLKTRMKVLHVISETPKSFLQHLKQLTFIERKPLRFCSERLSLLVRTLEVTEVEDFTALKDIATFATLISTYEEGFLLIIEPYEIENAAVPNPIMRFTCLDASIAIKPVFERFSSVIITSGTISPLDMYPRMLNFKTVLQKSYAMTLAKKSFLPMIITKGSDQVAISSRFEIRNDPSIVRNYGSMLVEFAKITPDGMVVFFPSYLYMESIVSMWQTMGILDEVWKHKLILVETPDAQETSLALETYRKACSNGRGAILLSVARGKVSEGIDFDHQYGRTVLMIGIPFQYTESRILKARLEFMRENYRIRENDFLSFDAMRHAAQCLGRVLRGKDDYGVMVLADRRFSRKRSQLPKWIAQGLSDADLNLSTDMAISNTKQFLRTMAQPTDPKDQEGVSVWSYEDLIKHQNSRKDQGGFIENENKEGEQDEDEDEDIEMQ

Rad4–Rad23–Rad33 complex = biological target: T2, Rad4–Rad23–Rad33 complex (yeast, UniProt P14736 1-754; P32628 1-398; Q04231 1-177); experiment: cross-linking; XL-MS: TFIIH/Rad4–Rad23–Rad33 assembled on −24/+24 AAF-DNA, 1 mg/mL in 20 mM HEPES pH 7.6, 300 mM potassium acetate, 5% glycerol, 5 mM DTT; 6 mM DSBU on ice 2 h; MeroX, FDR <1%
T2 construct: Rad4 (XPC homologue), yeast; Rad23 (RAD23B homologue), yeast; Rad33 (CETN2 homologue), yeast; plasmid pETDuet-RAD33; also called Rad4–23–33; yeast homologue of XPC–RAD23B–CETN2; copies: + +
T2 sequence 1: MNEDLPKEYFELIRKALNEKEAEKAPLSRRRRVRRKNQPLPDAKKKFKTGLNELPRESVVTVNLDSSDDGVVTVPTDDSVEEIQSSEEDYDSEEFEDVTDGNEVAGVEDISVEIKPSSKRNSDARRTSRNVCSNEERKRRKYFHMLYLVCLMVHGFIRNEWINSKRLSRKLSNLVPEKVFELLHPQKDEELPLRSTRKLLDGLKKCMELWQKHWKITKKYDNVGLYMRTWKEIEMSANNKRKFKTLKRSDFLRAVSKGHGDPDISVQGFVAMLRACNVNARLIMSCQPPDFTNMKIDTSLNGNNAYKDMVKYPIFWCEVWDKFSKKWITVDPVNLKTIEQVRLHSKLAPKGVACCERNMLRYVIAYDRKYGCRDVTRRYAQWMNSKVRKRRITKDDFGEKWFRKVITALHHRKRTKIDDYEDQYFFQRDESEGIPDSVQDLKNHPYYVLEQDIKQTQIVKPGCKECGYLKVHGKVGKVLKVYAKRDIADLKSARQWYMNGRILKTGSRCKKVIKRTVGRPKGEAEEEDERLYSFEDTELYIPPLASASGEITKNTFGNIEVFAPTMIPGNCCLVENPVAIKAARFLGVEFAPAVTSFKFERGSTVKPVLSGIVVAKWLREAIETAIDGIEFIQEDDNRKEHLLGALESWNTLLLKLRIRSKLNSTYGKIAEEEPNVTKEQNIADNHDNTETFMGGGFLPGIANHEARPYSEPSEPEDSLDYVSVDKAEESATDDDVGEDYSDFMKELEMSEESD
T2 sequence 2: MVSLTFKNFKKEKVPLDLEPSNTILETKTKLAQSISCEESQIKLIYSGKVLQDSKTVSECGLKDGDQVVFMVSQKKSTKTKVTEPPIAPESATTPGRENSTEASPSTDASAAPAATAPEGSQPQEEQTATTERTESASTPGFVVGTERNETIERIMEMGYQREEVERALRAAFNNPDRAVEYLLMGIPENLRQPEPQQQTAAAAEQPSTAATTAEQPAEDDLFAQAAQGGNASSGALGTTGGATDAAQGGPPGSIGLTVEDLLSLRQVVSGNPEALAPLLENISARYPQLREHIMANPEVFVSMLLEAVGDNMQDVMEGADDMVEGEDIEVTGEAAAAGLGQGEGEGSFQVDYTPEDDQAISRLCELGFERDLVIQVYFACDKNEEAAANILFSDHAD
T2 sequence 3: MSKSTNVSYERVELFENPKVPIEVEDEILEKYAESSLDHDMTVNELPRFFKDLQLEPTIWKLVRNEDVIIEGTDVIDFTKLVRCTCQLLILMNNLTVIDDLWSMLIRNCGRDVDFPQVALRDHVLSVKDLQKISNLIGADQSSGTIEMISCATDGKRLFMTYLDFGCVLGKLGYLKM

binding result (Ssl2): binds
B1: Tfb2 (natural protein, yeast, UniProt Q02939 1-513, looked up)
chain: MSDYSLKHSVTQYLEEIPQQVQNRLYTSPATCLAIYRILPPLAKFFIMAMVFNENEVPLLDLDKWVNSNGKLQFQNAIKSMKSLHLLIPNKSSGTLMINLNPTFKISLRNALTGGEVQNSFGVVVEENVVSLDLLDEYSANKWETILHFMVGTPLAKIPSEKVLNLLKHSKLMEEVNSTGEFKITNEGFQFLLQEINSQLWTLLLQYLKMIETSKMDLVDVLHFIFMLGALEVGKAYKIDALSETQRIMLQDMRDYGLVFQKHSNDSIFYPTKLALMLTSDTKTIRSASNAMDSVLRQNREEPSVNEDGANGKSTTDITTSDDLNKAGLKNQDIPDGSLIVETNFKIYSYSNSPLQIAVLSLFVHLKARFVNMVLGQITRESIRRALTNGITADQIIAYLETHAHPQMRRLAEEKLEKKLELDPNCKEPLQVLPPTVVDQIRLWQLELDRVITYEGSLYSDFETSQEYNLLSKYAQDIGVLLWKDDKKKKFFISKEGNSQVLDFAKRKLKKKQ
notes: Tfb2 (p52 homologue), subunit of yeast coreTFIIH; Tfb2C 412–513 as printed; Stood in the assays as part of coreTFIIH; also called yeast homologue of p52; source: purified from yeast as a subunit of coreTFIIH

binding result (Rad3): binds
B2: Ssl1 (natural protein, yeast, UniProt Q04673 1-461, looked up)
chain: MAPVVISESEEDEDRVAITRRTKRQVHFDGEGDDRVDQQQQQHSSSHRDRDKHVQRKKKKRLSNRNLQGSNGGYAWEDEIKRSWDLVKVDDEGDMASLVASIVEARKKRTAKKNITPYQRGIIRSLILTLDCSEAMLEKDLRPNRHAMIIQYAIDFVHEFFDQNPISQMGIIIMRNGLAQLVSQVSGNPQDHIDALKSIRKQEPKGNPSLQNALEMARGLLLPVPAHCTREVLIVFGSLSTTDPGDIHQTIDSLVSEKIRVKVLGLSAQVAICKELCKATNYGDESFYKILLDETHLKELFNEAVTPLPVNKINKGFTLVKMGFPTRIFEDTPTFCSCHSKLVYGGYFCPNCHSKVCSLPTVCPCCDLMLILSTHLARSYHHLMPLKTFAEVPTTEKFRSEDCFSCQSRFPILKNHKNGKLLTSSRYRCEDCKQEFCVDCDVFIHEILHNCPGCESKPVIT
notes: Ssl1 (p44 homologue), subunit of yeast coreTFIIH; Stood in the assays as part of coreTFIIH; also called yeast homologue of p44; source: purified from yeast as a subunit of coreTFIIH

Binder: B3
binding result (Rad4–Rad23–Rad33 complex): binds

Reference: PMC8184850, “Cryo-EM structure of TFIIH/Rad4–Rad23–Rad33 in damaged DNA opening in nucleotide excision repair” (Nature Communications, 2021)
